Bridge positions count the residues as written; N and C are the ends. Square brackets hold non-standard residues; d marks the D form. Ends that are not written are not given here.
Molecular target: hMuSK-Fc (chimeric protein of the secretory human MuSK extracellular portion and human IgG1 Fc) (human) (UniProt O15146)
Assay: SPR (Biacore T200), Fc-tagged human MuSK on Protein G/A chip, 1:1 fit

Sequence of hMuSK-Fc (chimeric protein of the secretory human MuSK extracellular portion and human IgG1 Fc) (human) (O15146 24-493, change not shown, form in doubt): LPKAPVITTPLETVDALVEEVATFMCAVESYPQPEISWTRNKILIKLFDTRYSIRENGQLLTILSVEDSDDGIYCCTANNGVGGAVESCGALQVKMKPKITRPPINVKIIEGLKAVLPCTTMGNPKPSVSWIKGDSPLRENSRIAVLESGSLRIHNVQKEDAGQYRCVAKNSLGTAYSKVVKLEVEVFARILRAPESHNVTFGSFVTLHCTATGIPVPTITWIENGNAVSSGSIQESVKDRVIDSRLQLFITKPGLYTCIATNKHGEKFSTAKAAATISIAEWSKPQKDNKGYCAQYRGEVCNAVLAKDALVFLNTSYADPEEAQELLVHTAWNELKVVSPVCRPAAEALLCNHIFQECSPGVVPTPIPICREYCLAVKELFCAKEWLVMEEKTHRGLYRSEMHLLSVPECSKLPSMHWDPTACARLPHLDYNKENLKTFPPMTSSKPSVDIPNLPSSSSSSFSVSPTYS

Kd: 0.9 nM
B1: Homodimer of MuSK7 with an introduced palmitoyl group (MuSK7-pal) (peptide)
peptide: {CH2CO}-[dY]PSYHTNVVASLKRC
modifications: thioether N-15; also: homodimer: two peptides condensed via C-terminal Cys carboxyl with linking unit bearing palmitic acid
